pKd: −log10 of the molar value.
What was measured:
[1] = molecular target: UNC5H-1 (rat homologue of UNC-5) (rat) (UniProt O08721); assay: equilibrium binding, curves fitted to the Hill equation
[2] = molecular target: UNC5H-2 (rat homologue of UNC-5) (rat) (UniProt O08722); assay: as above

Chain of UniProt O08721 (O08721 26-898 limits assumed, form in doubt): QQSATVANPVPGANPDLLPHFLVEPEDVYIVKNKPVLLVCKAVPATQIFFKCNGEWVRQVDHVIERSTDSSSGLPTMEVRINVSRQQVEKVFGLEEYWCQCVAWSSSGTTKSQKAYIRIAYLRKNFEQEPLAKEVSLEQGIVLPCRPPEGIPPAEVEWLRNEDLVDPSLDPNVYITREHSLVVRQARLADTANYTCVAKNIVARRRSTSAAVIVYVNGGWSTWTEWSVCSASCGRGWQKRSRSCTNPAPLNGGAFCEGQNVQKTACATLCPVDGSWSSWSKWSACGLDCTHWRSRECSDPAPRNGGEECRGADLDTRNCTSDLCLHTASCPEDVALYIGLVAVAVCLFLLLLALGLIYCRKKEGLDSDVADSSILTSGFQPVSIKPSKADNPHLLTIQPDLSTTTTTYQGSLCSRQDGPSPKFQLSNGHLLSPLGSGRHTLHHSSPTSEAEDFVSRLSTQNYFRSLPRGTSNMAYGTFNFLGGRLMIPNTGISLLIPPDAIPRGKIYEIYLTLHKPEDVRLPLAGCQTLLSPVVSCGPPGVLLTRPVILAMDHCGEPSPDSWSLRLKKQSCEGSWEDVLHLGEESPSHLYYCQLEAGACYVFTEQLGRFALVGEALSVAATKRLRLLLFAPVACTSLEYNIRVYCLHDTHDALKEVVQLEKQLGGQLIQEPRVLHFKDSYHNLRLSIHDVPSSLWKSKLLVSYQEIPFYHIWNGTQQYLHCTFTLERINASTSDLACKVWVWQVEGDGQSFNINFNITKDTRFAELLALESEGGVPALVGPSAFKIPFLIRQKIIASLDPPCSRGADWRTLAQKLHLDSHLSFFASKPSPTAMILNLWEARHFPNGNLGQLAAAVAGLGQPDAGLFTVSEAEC

netrin(VIoV)-Fc (Fc fusion)
pKd [1]: 7.72
pKd [2]: 8.47

Reference: patent US7041806
